Where no end group is shown, it is not given here.
T1: GLP-1 receptor (rat), P32301
T1 chain: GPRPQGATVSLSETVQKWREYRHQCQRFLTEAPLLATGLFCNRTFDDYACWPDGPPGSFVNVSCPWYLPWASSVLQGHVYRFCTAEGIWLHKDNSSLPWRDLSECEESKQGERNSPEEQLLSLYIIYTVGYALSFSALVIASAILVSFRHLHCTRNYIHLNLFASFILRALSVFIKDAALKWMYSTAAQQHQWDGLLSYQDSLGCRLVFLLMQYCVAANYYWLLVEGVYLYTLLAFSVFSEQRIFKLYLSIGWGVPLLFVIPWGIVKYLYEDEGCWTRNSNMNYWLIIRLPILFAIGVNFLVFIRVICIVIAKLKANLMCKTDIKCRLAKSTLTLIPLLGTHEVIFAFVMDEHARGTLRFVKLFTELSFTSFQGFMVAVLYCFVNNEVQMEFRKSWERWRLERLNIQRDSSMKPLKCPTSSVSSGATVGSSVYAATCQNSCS

T2: Glucagon receptor (rat), P30082
T2 chain: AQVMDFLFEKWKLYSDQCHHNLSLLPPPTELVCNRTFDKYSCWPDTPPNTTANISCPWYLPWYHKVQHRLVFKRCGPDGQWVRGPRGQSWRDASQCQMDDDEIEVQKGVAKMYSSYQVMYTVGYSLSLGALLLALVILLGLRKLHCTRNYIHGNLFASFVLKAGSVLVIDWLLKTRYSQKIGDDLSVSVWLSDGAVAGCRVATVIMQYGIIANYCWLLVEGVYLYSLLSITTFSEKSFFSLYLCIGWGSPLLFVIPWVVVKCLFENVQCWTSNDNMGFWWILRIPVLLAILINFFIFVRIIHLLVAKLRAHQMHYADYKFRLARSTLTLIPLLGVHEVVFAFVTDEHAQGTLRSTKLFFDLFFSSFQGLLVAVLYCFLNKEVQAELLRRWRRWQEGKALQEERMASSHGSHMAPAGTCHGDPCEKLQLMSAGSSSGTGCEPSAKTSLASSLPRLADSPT

T3: Glucagon receptor (rat, UniProt P30082)
T3 chain: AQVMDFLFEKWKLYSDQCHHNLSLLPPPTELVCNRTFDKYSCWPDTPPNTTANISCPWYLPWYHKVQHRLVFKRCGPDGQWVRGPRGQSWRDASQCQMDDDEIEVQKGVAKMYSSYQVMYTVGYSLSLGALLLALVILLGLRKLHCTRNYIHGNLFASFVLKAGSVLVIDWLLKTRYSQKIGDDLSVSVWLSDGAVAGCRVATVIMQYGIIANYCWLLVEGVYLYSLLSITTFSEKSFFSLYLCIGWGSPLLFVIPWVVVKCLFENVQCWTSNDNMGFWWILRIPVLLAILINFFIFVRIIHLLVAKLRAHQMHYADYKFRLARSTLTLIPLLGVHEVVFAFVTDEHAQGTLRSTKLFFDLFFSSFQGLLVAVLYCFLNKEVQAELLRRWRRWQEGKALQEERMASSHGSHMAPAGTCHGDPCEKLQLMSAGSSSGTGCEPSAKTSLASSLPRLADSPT

T4: GLP-1 receptor (rat, UniProt P32301)
T4 chain: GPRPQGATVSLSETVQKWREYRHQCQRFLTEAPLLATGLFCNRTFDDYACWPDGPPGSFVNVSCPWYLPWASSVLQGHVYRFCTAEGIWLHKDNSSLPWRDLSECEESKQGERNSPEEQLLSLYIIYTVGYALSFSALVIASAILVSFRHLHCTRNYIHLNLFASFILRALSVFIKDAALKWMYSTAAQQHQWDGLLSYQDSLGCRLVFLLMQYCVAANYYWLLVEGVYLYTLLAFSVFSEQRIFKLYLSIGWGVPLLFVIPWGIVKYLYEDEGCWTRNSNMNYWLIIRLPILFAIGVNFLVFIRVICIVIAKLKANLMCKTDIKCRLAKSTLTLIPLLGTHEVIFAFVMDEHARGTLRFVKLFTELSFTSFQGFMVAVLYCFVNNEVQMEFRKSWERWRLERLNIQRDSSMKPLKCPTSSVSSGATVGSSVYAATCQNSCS


Columns and labels:
Assay in all cases: competition
[1] = target: T1, GLP-1 receptor (rat), P32301; settings: modification not given
[2] = target: T2, Glucagon receptor (rat), P30082; settings: modification not given
[3] = target: T3, Glucagon receptor
[4] = target: T4, GLP-1 receptor

Row | Binder | IC50 [1] [nM] | IC50 [2] [nM] | IC50 [3] [nM] | IC50 [4] [nM]
1 | HSQGTFTSDYAKYLDARRACEFIAWLVKGRG [G71] | 5.8 | 25.6 | – | –
2 | HSQGTFTSDYAKYLDARRAKEFIAWLVKCRG [G75] | 7.7 | 54 | – | –
3 | HSQGTFTSDYARYLDARRAREFIKWLVRGRGK [G182] | 12.6 | 220 | – | –
4 | HSQGTFTSDYAKYLDARRAKEFIAWLVKGR [G87] | 98.6 | 620 | – | –
5 | HSQGTFTSDYARYLDAKKAKEFIAWLVKGRG [G59] | 2.1 | 97.5 | – | –
6 | HSQGTFTSDYARYLDARRAKEFIAWLVKGR [G55] | 9.8 | 139 | – | –
7 | HSQGTFTSDYAKYLDARRAKEFIAWLVKGCG [G76] | 10.2 | 59.1 | – | –
8 | HSQGTFTSDYARYLDARRAREFIAWLVKGRG [G84] | 1.4 | 11.7 | – | –
9 | HSQGTFTSDYAKYLDAAKAKEFIAWLVKGRG [G60] | 13.8 | 682 | – | –
10 | HSQGTFTSDYARYLDARRAKEFIAWLVRGRG [G82] | 8.1 | 33.6 | – | –
11 | HSQGTFTSDYSKYLDSRRAQDFVQWLVKGR [G1] | 6 | 6.6 | – | –
12 | HSQGTFTSDYARYLDARRAREFIAWLVRGRGK [G85] | 1.5 | 16.1 | – | –
13 | HSQGTFTSDYAKYLDARRAKEFIAWLVCGRG [G74] | 4.4 | 21.7 | – | –
14 | HSQGTFTSDYARYLDARRAREFIKWLVRGRG [G90] | 25.4 | 726 | – | –
15 | HSQGTFTSDYAKYLDAKKAKEFIAWLVKGRG [G58] | 6.9 | 164 | – | –
16 | HSQGTFTSDYAKYLDAARAKEFIAWLVKGR [G57] | 14.7 | 178 | – | –
17 | HSQGTFTSDYAAYLDARRAKEFIAWLVKGR [G56] | 6.6 | 125 | – | –
18 | HSQGTFTSDYAKYLDARRAKEFIAWLVKGR [G27] | 2.2 | 69.3 | – | –
19 | HSQGTFTSDYAKYLDARRAKEFIAWLVKGRK [G88] | 109 | 350 | – | –
20 | HSQGTFTSDYSKYLEGQAAKEFIAWLVKGR [G5] | 0.5 | 243 | – | –
21 | HSQGTFTSDYARYLDAAKAKEFIAWLVKGRG [G61] | 10.6 | 232 | – | –
22 | HSQGTFTSDYARYLDARRAREFIKWLVRGRG [G83] | 3.2 | 28.6 | – | –
23 | HSQGTFTSDYARYLDARRAREFIKWLVRGRC [G185] | 4.5 | 48 | – | –
24 | HSQGTFTSDYAKYLDARRAKEFIAWLVKGRG [G51] | 8.2 | 154 | – | –
25 | HSQGTFTSDYARYLDARRAKEFIKWLVRGRG [G183] | 159 | 663 | – | –
26 | HSQGTFTSDYAKYLDARRAKEFIAWLVKGRC [G77] | 8.9 | 61.1 | – | –
27 | HSQGTFTSDYARYLDARRAREFIKWLVRGRC(PEG 43 kD) [G4185] | – | – | 547 | 248
28 | HSQGTFTSDYAKYLDARRAKEFIAWLVKGRC(PEG 22 kD) [G277] | – | – | 65.5 | –
29 | HSQGTFTSDYARYLDARRAREFIKWLVRGRC(PEG 22 kD) [G2185] | – | – | 347 | 56.1

Source: US7399745 (dated 2008)
